In publication PMC2732195:

Target: wild type presenilin 1 (PS1) (UniProt P49768)
Assay: FRET or BRET

Alexa 430 donor lifetime (FRET): 1230 ps | Alexa 488 donor lifetime (FLIM), average per cell: 1890 ps | Alexa 488 donor lifetime (FLIM), cell interior: 2090 ps | Alexa 488 donor lifetime (FLIM), cell periphery: 1420 ps | FRET strength normalized to WT APP (normalized to WT APP): 100
Substance: wild type human APP C99 (from UniProt P05067 672-770) (domain or fragment)
